Laboratory results from US20240277803A1, “NME INHIBITORS AND METHODS OF USING NME INHIBITORS” (Minerva Biotechnologies Corporation, priority 2013, published 2024).

Assays:
Type in all cases: cell-based
Human stem cells (iPS) = assay: human iPS stem cell culture in NME7-AB or NM23-H1 dimers
Method: Testing recombinant NME7 for ability to maintain pluripotency and inhibit differentiation. A soluble variant of NME7, NME7-AB, was generated and purified. Human stem cells (iPS cat #SC101a-1, System Biosciences) were grown per the manufacturer's directions in 4 ng/ml bFGF over a layer of mouse fibroblast feeder cells for four passages. These source stem cells were then plated into 6-well cell culture plates (Vita™, Thermo Fisher) that had been coated with 12.5 ug/well of a monoclonal anti-MUC1* antibody, MN-C3. Cells were plated at a density of 300,000 cells per well. The base media was Minimal Stem Cell Media consisting of: 400 ml DME/F12/GlutaMAX I (Invitrogen #10565-018), 100 ml Knockout Serum Replacement (KO-SR, Invitrogen #10828-028), 5 ml 100×MEM Non-essential Amino Acid Solution (Invitrogen#11140-050) and 0.9 ml (0.1 mM) β-mercaptoethanol (55 mM stock, Invitrogen #21985-023). The base media can be any media. In a preferred embodiment, the base media is free of other growth factors and cytokines. To the base media was added either 8 nM of NME7-AB or 8 nM NM23-H1 refolded and purified as stable dimers. Media was changed every 48 hours and due to accelerated growth had to be harvested and passaged at Day 3 post-plating. FIGS. 9 and 10 document the day by day comparison of growth in NM23-H1 dimers to growth in NME7 monomers. […] Cell counts at the first harvest verified that culture in NME7 produced 1.4-times more cells than culture in NM23-H1 dimers.

T47D breast cancer cells = assay: RT-PCR of T47D cells cultured in 2i inhibitors and/or NME7-AB (FIGS. 48, 49)
Method: 2i inhibitors, which are small molecule inhibitors of GSK3-beta and MEK of the MAP kinase signaling pathway, have been reported (Silva J et al, 2008) to revert mouse primed stem cells to the naïve state. We wondered whether these inhibitors could also revert human cancer cells to the cancer stem cell state. T47D breast cancer cells were cultured for 10 days in a serum-free minimal base media with the 2i inhibitors added or in the same base media with human recombinant NME7-AB added, or both NME7-AB and 2i. […] The relative potency of inducing the cancer stem cell markers was NME7>NME7+2i>2i (FIG. 48).

A panel of cancer cells = assay: PCR of stem and cancer stem cell markers in cancer cells cultured in NME proteins; details: cell type not given
Method: Another function that NME1 and NME7 have is the ability to transform cancer cells to the more metastatic cancer stem cell state, also called tumor initiating cells. A panel of cancer cells were cultured in a serum-free minimal base media with human NME7-AB or human NME1 dimers (‘NM23’ in figures) as the only growth factor or cytokine. After several days in this media, cells began to float off the surface and continued to grow in solution. The ‘floaters’ were collected and separately analyzed by PCR. Cells in other wells were treated with a rho kinase inhibitor (‘Ri in figures’). Quantitative PCR measurements show an increase of the cancer stem cell markers, some of which used to be thought of as stem cell markers only (Miki J et al 2007, Jeter C R et al 2011, Hong X et al 2012Faber A et al 2013, Mukherjee D et al 2013, Herreros-Villanueva M et al, 2013, Sefah K et al, 2013; Su H-T et al 2013). […] We observed a more modest, but trending, increase in markers of cancer stem cells and metastasis even in cells that were MUC1-negative (FIG. 47). We therefore conclude that NME7 likely is able to enter these cells by a route other than MUC1* wherein it can still act as a transcription factor and affect the expression levels of these genes. […] However, many cancers mutate NME1 so that it resists the formation of the self-replication limiting hexamer. Unlike NME1, NME7 is always active.
Standard methods were used to perform RT-PCR. The primers used are listed below: RNA was isolated using the Trizol® Reagent (Invitrogen) and cDNA was reverse transcribed with Random Hexamers (Invitrogren) using Super Script II (Invitrogen) and subsequently assayed for the genes FOXA2, XIST, KLF2, KLF4, NANOG and OCT4, using Applied Biosystems gene expression assays (OCT4 P/N Hs00999634_gH, Nanog P/N Hs02387400_g1, KLF2 P/N Hs00360439_g1, KLF4 P/N Hs00358836_m1, FOXa2 P/N Hs00232764_m1, OTX2 P/N Hs00222238_m1, LHX2 P/N Hs00180351_m1, XIST P/N Hs01079824 ml and GAPDH P/N 4310884E), on an Applied Biosystems 7500 real-time instrument. Each sample was run in triplicate. Gene expression was normalized to GAPDH. Data are expressed as a fold change relative to control.

B1: NME7-AB: recombinant human NME7 of NDPK A and B domains without the DM10 leader sequence, ~33 kDa (SEQ ID NO:39) (protein, listed as Homo sapiens)
chain: MEKTLALIKPDAISKAGEIIEIINKAGFTITKLKMMMLSRKEALDFHVDHQSRPFFNELIQFITTGPIIAMEILRDDAICEWKRLLGPANSGVARTDASESIRALFGTDGIRNAAHGPDSFASAAREMELFFPSSGGCGPANTAKFTNCTCCIVKPHAVSEGLLGKILMAIRDAGFEISAMQMFNMDRVNVEEFYEVYKGVVTEYHDMVTEMYSGPCVAMEIQQNNATKTFREFCGPADPEIARHLRPGTLRAIFGKTKIQNAVHCTDLPEDGLLEVQYFFKILDN
modifications: Human NME7-AB
stem cell growth, pluripotency and differentiation (Human stem cells (iPS); 8 nM in minimal media over MN-C3 surface): fully supported human stem cell growth
cells produced relative to culture in NM23-H1 dimers (cell counts at first harvest) (Human stem cells (iPS); 8 nM, Day 3 post-plating): 1.4 times
expression of CDH1, CXCR4, OCT4, SOX2 and NANOG (T47D breast cancer cells; T47D cultured for 10 days in serum-free minimal base media, FIG. 48): greatly up-regulated
expression of BRD4, JMJD6, MBD3 and CHD4 (T47D breast cancer cells; T47D, FIG. 49): similarly down-regulated
up-regulation of KLF4 (A panel of cancer cells): 4 X
up-regulation of MUC1 (A panel of cancer cells): 10 X
up-regulation of NANOG (A panel of cancer cells): ~10 X
up-regulation of OCT4 (A panel of cancer cells): ~50 X
up-regulation of SOX2 (A panel of cancer cells): > 150 X
up-regulation of cancer stem cell marker CXCR4 (A panel of cancer cells): ~200 X
up-regulation of cancer stem cell marker E-cadherin (CDH1) (A panel of cancer cells): up-regulates
